# Results as given in patent US20240116985A1 (published 2024).
# Starred links: 1 amine or outer side, 2 acyl side, 3 side chain; linkers in the order of their positions; H or OH if unused. Positions of bridges follow the written chain, without caps; N, C: chain ends. Non-standard residues stand in square brackets, D forms with d. Primed or numbered codes have the meaning given here. B5(16) = 2-amino-2-(pent-4-en-1-yl)hept-6-enoic acid = 2,2-bis(4-pentenyl)glycine (stitching residue), C=CCCCC(CCCC=C)(N[*:1])C(=O)[*:2]; B5(4) = 2,2-bis(4-pentenyl)glycine = 2-amino-2-(pent-4-en-1-yl)hept-6-enoic acid (stitching residue), C=CCCCC(CCCC=C)(N[*:1])C(=O)[*:2]; B5(9) = 2-amino-2-(pent-4-en-1-yl)hept-6-enoic acid (2,2-bis(4-pentenyl)glycine), C=CCCCC(CCCC=C)(N[*:1])C(=O)[*:2]; B5(14) = 2-amino-2-(pent-4-en-1-yl)hept-6-enoic acid (bis-pentenylglycine), C=CCCCC(CCCC=C)(N[*:1])C(=O)[*:2]; WCHO = 1-formyl-L-tryptophan, O=Cn1cc(C[C@H](N[*:1])C(=O)[*:2])c2ccccc21; S(OMe) = O-methyl-L-serine, COC[C@H](N[*:1])C(=O)[*:2]; Phe(2-CONH2) = NC(=O)c1ccccc1C[C@H](N)C(=O)O; Ala(2-furyl) = N[C@@H](Cc1ccco1)C(=O)O; His(τ-Me) = Cn1cnc(C[C@H](N)C(=O)O)c1; Bta = N[C@@H](Cc1csc2ccccc12)C(=O)O; αAllylPro = C=CC[C@@]1(C(=O)O)CCCN1; S8 = C=CCCCCCC[C@](C)(N)C(=O)O
# T1: full-length beta-Catenin (Uniprot ID P35222) (Homo sapiens (Human), UniProt P35222 1-781)
# T1 construct: also called bCat; B-Catenin
# T1 sequence: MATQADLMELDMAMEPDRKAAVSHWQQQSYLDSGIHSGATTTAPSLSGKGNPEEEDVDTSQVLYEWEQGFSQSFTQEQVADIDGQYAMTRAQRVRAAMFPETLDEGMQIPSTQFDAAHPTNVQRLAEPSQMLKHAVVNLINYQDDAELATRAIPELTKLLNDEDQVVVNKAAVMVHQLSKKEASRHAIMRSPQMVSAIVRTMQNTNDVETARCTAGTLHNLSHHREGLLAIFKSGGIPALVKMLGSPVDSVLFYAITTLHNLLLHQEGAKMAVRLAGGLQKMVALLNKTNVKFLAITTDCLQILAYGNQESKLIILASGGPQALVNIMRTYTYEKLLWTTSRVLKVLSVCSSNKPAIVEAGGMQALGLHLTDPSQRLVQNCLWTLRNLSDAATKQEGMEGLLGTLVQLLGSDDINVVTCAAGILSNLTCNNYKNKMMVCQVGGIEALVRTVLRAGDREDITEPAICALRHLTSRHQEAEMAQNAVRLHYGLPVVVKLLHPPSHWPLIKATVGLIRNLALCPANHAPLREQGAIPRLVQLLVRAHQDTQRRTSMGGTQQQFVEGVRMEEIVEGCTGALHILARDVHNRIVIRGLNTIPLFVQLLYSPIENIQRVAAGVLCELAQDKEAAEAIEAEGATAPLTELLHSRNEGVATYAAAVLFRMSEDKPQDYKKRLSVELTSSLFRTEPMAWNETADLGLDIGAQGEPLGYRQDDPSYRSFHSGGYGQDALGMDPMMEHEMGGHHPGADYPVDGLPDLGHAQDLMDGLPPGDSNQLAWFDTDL
# B1: I-352 (peptide)
# peptide: Ac-[αAllylPro]DA[B5(16)]DAAAFV[S8]FWQ-NH2
# modifications: staple 1-4, 4-11
# notes: Stapled peptide composition; also called Ac-PL3-Asp-Ala-B5-Asp-Ala-Ala-Ala-Phe-Val-S8-Phe-Trp-Gln-NH2
# B2: I-333 (peptide)
# peptide: Ac-[αAllylPro]DA[B5(4)]DDAAFS[S8]F[WCHO]S-NH2
# modifications: staple 1-4, 4-11
# notes: Stapled peptide composition; also called Ac-PL3-Asp-Ala-B5-Asp-Asp-Ala-Ala-Phe-Ser-S8-Phe-WCHO-Ser-NH2
# B3: I-349 (peptide)
# peptide: XAAXDDAAFVXFWQ
# modifications: not fully specified; N-terminal Ac; PL3 at 1; B5 at 4; S8 at 11; C-terminal NH2; stapled PL3-B5 and B5-S8 (olefin metathesis)
# notes: Stapled peptide composition; also called Ac-PL3-Ala-Ala-B5-Asp-Asp-Ala-Ala-Phe-Val-S8-Phe-Trp-Gln-NH2
# B4: I-338 (peptide)
# peptide: XDAXDDAAFVXFXQ
# modifications: not fully specified; N-terminal Ac; PL3 at 1; B5 at 4; S8 at 11; 4CBMF at 12; BztA at 13; C-terminal NH2; stapled PL3-B5 and B5-S8 (olefin metathesis)
# notes: Stapled peptide composition; also called Ac-PL3-Asp-Ala-B5-Asp-Asp-Ala-Ala-Phe-Val-S8-4CBMF-BztA-Gln-NH2
# B5: I-351 (peptide)
# peptide: XDAXADAAFVXFWQ
# modifications: not fully specified; N-terminal Ac; PL3 at 1; B5 at 4; S8 at 11; C-terminal NH2; stapled PL3-B5 and B5-S8 (olefin metathesis)
# notes: Stapled peptide composition; also called Ac-PL3-Asp-Ala-B5-Ala-Asp-Ala-Ala-Phe-Val-S8-Phe-Trp-Gln-NH2
# B6: I-350 (peptide)
# peptide: XDAXADAAFVXFWQ
# modifications: not fully specified; N-terminal Ac; PL3 at 1; B5 at 4; S8 at 11; C-terminal NH2; stapled PL3-B5 and B5-S8 (olefin metathesis)
# notes: as for B5
# B7: I-329 (peptide)
# peptide: Ac-[αAllylPro]DA[B5(4)]DDAA[His(τ-Me)]V[S8]FWQ-NH2
# modifications: staple 1-4, 4-11; not fully specified; printed as Ac-PL3-Asp-Ala-B5-Asp-Asp-Ala-Ala-1meH-Val-S8-Phe-Trp-Gln-NH2
# notes: Stapled peptide composition; also called Ac-PL3-Asp-Ala-B5-Asp-Asp-Ala-Ala-1meH-Val-S8-Phe-Trp-Gln-NH2
# B8: I-353 (peptide)
# peptide: XDAXDDAAAVXFWQ
# modifications: not fully specified; N-terminal Ac; PL3 at 1; B5 at 4; S8 at 11; C-terminal NH2; stapled PL3-B5 and B5-S8 (olefin metathesis)
# notes: Stapled peptide composition; also called Ac-PL3-Asp-Ala-B5-Asp-Asp-Ala-Ala-Ala-Val-S8-Phe-Trp-Gln-NH2
# B9: I-337 (peptide)
# peptide: XDAXDDAAFVXFXQ
# modifications: not fully specified; N-terminal Ac; PL3 at 1; B5 at 4; S8 at 11; 4CBMF at 12; BztA at 13; C-terminal NH2; stapled PL3-B5 and B5-S8 (olefin metathesis)
# notes: as for B4
# B10: I-332 (peptide)
# peptide: Ac-[αAllylPro]DA[B5(14)]DDAAHV[S8]FWQ-NH2
# modifications: staple 1-4, 4-11; not fully specified (residue 9)
# notes: Stapled peptide composition; also called Ac-PL3-Asp-Ala-B5-Asp-Asp-Ala-Ala-3meH-Val-S8-Phe-Trp-Gln-NH2
# B11: I-348 (peptide)
# peptide: XAAXDDAAFVXFWQ
# modifications: not fully specified; N-terminal Ac; PL3 at 1; B5 at 4; S8 at 11; C-terminal NH2; stapled PL3-B5 and B5-S8 (olefin metathesis)
# notes: as for B3
# B12: I-328 (peptide)
# peptide: Ac-[αAllylPro]DA[B5(4)]DDAA[Ala(2-furyl)]V[S8]FWQ-NH2
# modifications: staple 1-4, 4-11; not fully specified; printed as Ac-PL3-Asp-Ala-B5-Asp-Asp-Ala-Ala-2FurA-Val-S8-Phe-Trp-Gln-NH2
# notes: Stapled peptide composition; also called Ac-PL3-Asp-Ala-B5-Asp-Asp-Ala-Ala-2FurA-Val-S8-Phe-Trp-Gln-NH2
# B13: I-331 (peptide)
# peptide: Ac-[αAllylPro]DA[B5(14)]DDAAHV[S8]FWQ-NH2
# modifications: staple 1-4, 4-11; not fully specified (residue 9)
# notes: as for B10
# B14: I-327 (peptide)
# peptide: Ac-[αAllylPro]DA[B5(4)]DDAA[Ala(2-furyl)]V[S8]FWQ-NH2
# modifications: staple 1-4, 4-11; not fully specified; printed as Ac-PL3-Asp-Ala-B5-Asp-Asp-Ala-Ala-2FurA-Val-S8-Phe-Trp-Gln-NH2
# notes: as for B12
# B15: I-330 (peptide)
# peptide: Ac-[αAllylPro]DA[B5(4)]DDAA[His(τ-Me)]V[S8]FWQ-NH2
# modifications: staple 1-4, 4-11
# notes: as for B7
# B16: I-336 (peptide)
# peptide: Ac-[αAllylPro]DA[B5(4)]DDAAFV[S8][Phe(2-CONH2)][Bta]Q-NH2
# modifications: staple 1-4, 4-11
# notes: Stapled peptide composition; also called Ac-PL3-Asp-Ala-B5-Asp-Asp-Ala-Ala-Phe-Val-S8-2CBMF-BztA-Gln-NH2
# B17: I-341 (peptide)
# peptide: Ac-[αAllylPro]DA[B5(9)]DDAAFV[S8]Y[Bta]Q-NH2
# modifications: staple 1-4, 4-11
# notes: Stapled peptide composition; also called Ac-PL3-Asp-Ala-B5-Asp-Asp-Ala-Ala-Phe-Val-S8-Tyr-BztA-Gln-NH2
# B18: I-345 (peptide)
# peptide: Ac-[αAllylPro]D[S(OMe)][B5(9)]DDAAFV[S8]F[Bta]Q-NH2
# modifications: staple 1-4, 4-11
# notes: Stapled peptide composition; also called Ac-PL3-Asp-S(OMe)-B5-Asp-Asp-Ala-Ala-Phe-Val-S8-Phe-BztA-Gln-NH2
# B19: I-342 (peptide)
# peptide: Ac-[αAllylPro]DA[B5(9)]DDAAFT[S8]F[Bta]Q-NH2
# modifications: staple 1-4, 4-11
# notes: Stapled peptide composition; also called Ac-PL3-Asp-Ala-B5-Asp-Asp-Ala-Ala-Phe-Thr-S8-Phe-BztA-Gln-NH2
# B20: I-347 (peptide)
# peptide: XDQXDDAAFVXFXQ
# modifications: not fully specified; N-terminal Ac; PL3 at 1; B5 at 4; S8 at 11; BztA at 13; C-terminal NH2; stapled PL3-B5 and B5-S8 (olefin metathesis)
# notes: Stapled peptide composition; also called Ac-PL3-Asp-Gln-B5-Asp-Asp-Ala-Ala-Phe-Val-S8-Phe-BztA-Gln-NH2
# B21: I-346 (peptide)
# peptide: XDQXDDAAFVXFXQ
# modifications: not fully specified; N-terminal Ac; PL3 at 1; B5 at 4; S8 at 11; BztA at 13; C-terminal NH2; stapled PL3-B5 and B5-S8 (olefin metathesis)
# notes: as for B20
# Biological target: T1, full-length beta-Catenin (Uniprot ID …)
# Assay: fluorescence polarization competition vs 5FAM-TCF4(10-53) on full-length beta-catenin
# Method: The plate was incubated protected from light for 60 minutes at 20° C. prior to read. Reads were performed on a CLARIOstar plate reader (BMG Labtech) in duplicate, and data were fitted to a 1:1 binding model with hill slope using an in-house script. All provided concentrations are final concentrations.
row,IC50 [µM],Binder
1,5,B1
2,2.76,B2
3,5,B3
4,5,B4
5,5,B5
6,5,B6
7,5,B7
8,5,B8
9,5,B9
10,5,B10
11,5,B11
12,1.91,B12
13,5,B13
14,4.72,B14
15,5,B15
16,0.153,B16
17,2,B17
18,0.134,B18
19,0.0585,B19
20,0.121,B20
21,0.18,B21
